# Assay results reported in US20230383007A1 (BIOSION, published 2023).
# T1: human TROP2-his protein (human, UniProt P09758 27-274)
# T1 construct: also called biotin labeled human TROP2-his protein
# T1 sequence: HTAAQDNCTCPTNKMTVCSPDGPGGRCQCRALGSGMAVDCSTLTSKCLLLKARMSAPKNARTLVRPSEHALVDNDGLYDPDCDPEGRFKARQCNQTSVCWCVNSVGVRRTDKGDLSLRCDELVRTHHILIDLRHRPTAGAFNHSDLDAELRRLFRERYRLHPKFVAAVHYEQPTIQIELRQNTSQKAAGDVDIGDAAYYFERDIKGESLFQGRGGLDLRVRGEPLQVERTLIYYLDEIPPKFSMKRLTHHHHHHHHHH
# T2: cynomolgus TROP2-his protein (cynomolgus, UniProt P09758 27-272 (human entry), limits assumed)
# T2 construct: also called Cyno TROP2-his; Cynomolgus monkey TROP2-his protein
# T2 chain: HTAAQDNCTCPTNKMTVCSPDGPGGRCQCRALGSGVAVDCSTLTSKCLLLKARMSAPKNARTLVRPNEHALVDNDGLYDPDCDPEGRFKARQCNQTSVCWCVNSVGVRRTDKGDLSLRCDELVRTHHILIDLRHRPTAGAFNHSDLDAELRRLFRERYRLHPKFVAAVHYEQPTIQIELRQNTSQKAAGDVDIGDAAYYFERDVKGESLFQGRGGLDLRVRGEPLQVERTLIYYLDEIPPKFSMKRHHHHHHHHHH
# Legend:
# human TROP2-his protein [1] = biological target: T1, human TROP2-his protein; experiment: indirect ELISA, plate coated with 1 ug/ml TROP2-his; bacterial culture supernatant
# Protocol: (§1) ELISA plates were coated with 100 μl 1 μg/ml human TROP2-his protein (in house made with SEQ ID NO: 16), or 1 μg/ml cynomolgus TROP2-his protein (in house made with SEQ ID NO: 19) in carbonate/bicarbonate buffer (pH 9.6) overnight at 4° C., washed once with wash buffer (PBS+0.05% v/v Tween-20, PBST) and then blocked with 200 μl/well blocking buffer (5% w/v non-fatty milk in PBST) for 2 hours at 37° C. Plates were washed 4 times, and respectively incubated with 100 μl bacterial culture supernatant, and sacituzumab (used as the benchmark, also referred to as BM or BM1 hereinafter, in house made with heavy chain and light chain amino acid sequences set forth in SEQ ID NOs: 17 and 18) in 5% w/v non-fatty milk in PBST at 200 ng/ml, for 40 minutes at 37° C. The plates were washed 4 times, and incubated with THE™ HA Tag Antibody [HRP], mAb, Mouse Antibody (1:5000 dilution in PBST, GenScript, Cat #A01296, 100 μl/well, for plates with bacterial culture supernatans of the disclosure) or Peroxidase AffiniPure F(ab′)₂ Fragment Goat Anti-Human IgG, Fey fragment specific (Jackson Immunoresearch, Cat #109-036-098, for plates with the benchmark), for 40 minutes at 37° C. After a final wash, plates were incubated with 100 μl/well ELISA substrate TMB (Innoreagents, Cat #TMB-S-002) at room temperature. The reaction was stopped in 3-10 minutes with 50 μl/well 1M H₂SO₄, and the absorbance of each well was read on a microplate reader using dual wavelength mode with 450 nm for TMB and 630 nm as the reference wavelength. When the OD of a sample well was 2 times higher than the OD of the blank well, the sample can be determined as positive.
# [2] = biological target: T2, cynomolgus TROP2-his protein; experiment: as above
# Protocol: as §1
# human TROP2-his protein [3] = biological target: T1, human TROP2-his protein; experiment: SPR Biacore T200; antibody captured on anti-human IgG chip, 40 nM human TROP2-his as analyte
# Description: (§2) The purified anti-TROP2 mouse monoclonal antibodies (mAbs) were characterized for binding affinity and binding kinetics by Biacore T200 system (GE healthcare, Pittsburgh, PA, USA). Briefly, goat anti-human IgG (GE healthcare, Cat #BR100839, Human Antibody Capture Kit) was covalently linked to a CM5 chip (carboxy methyl dextran coated chip from GE healthcare #BR100530) via primary amines, using a standard amine coupling kit (GE healthcare, Pittsburgh, PA, USA) provided by Biacore. Un-reacted moieties on the chip (biosensor) surface were blocked with ethanolamine. The anti-TROP2 antibodies of the disclosure and the benchmark at the concentration of 2 μg/ml were respectively flowed onto the chip at a flow rate of 10 μL/min. Then, serially diluted human TROP2-his protein (prepared in-house with SEQ ID NO: 16), or cynomolgus TROP2-his protein (prepared in-house with SEQ ID NO: 19), 2-fold dilution in HBS-EP⁺ buffer (provided by Biacore) starting at 160 nM, were flowed onto the chip at a flow rate of 30 μL/min. The antigen-antibody association kinetics was followed for 2 minutes and the dissociation kinetics was followed for 10 minutes. The association and dissociation curves were fit to a 1:1 Langmuir binding model using BIAcore evaluation software.
# For the BIAcore test, cell supernatants containing humanized 01-9F-CDR-V11 antibodies were respectively flowed onto the chip at a flow rate of 10 μL/min, and 40 nM human TROP2-his protein (prepared in-house with SEQ ID NO: 16) in HBS-EP⁺ buffer (provided by Biacore) were flowed onto the chip at a flow rate of 30 μL/min.
# human TROP2-his protein [4] = biological target: T1, human TROP2-his protein; experiment: SPR Biacore; antibody captured on anti-human IgG chip, 40 nM human TROP2-his as analyte
# Description: as §2
# For the BIAcore test, cell supernatants containing the 01-9F-Fc variants were respectively flowed onto the chip instead of the purified anti-TROP2 antibodies, at a flow rate of 10 μL/min, and 40 nM human TROP2-his proteins (prepared in-house with SEQ ID NO: 16) in HBS-EP⁺ buffer (provided by Biacore), instead of serially diluted human TROP2-his proteins, were flowed onto the chip at a flow rate of 30 μL/min.
binder,measurement,setting,value
single domain antibody 01-9F (VHH) VHH: QVQLVESGGGSVQAGGSLRLSCVVSGLPYERYCVAWFRQGPGKEREGVARILSDGTTSYSDSVKGRFTISKDNAKNTLYLQMNSLKSEDTATYYCAAEAFRPFTPSDGDCTTVLGIDYWGKGTPVTVSS,Indirect ELISA OD (450-630),human TROP2-his protein [1],0.97 OD (450-630)
same,Indirect ELISA OD (450-630),[2],0.59 OD (450-630)
same,Kd,human TROP2-his protein [3],0.188 nM
same,koff,human TROP2-his protein [3],0.000224 s⁻¹
same,kon,human TROP2-his protein [3],1.19e+06 M⁻¹ s⁻¹
same,Kd,human TROP2-his protein [4],0.202 nM
same,koff,human TROP2-his protein [4],0.000101 s⁻¹
same,kon,human TROP2-his protein [4],502000 M⁻¹ s⁻¹
